The record followed here is the DeepSol protein solubility set.

The series is described as follows: soluble on expression in E. coli; label from the status in PepcDB or PDB records.
In the case of “MSYYHHHHHHDYDIPTTENLYFQGAMGSGIPMSLPGSTHSTAAELTGPSLVEVLRARPWFEEPPKAVELEGLAACEGEYSQKYSTMSPLGSGAFGFVWTAVDKEKNKEVVVKFIKKEKVLEDCWIEDPKLGKVTLEIAILSRVEHANIIKVLDIFENQGFFQLVMEKHGSGLDLFAFIDRHPRLDEPLASYIFRQLVSAVGYLRLKDIIHRDIKDENIVIAEDFTIKLIDFGSAAYLERGKLFYTFCGTIEYCAPEVLMGNPYRGPELEMWSLGVTLYTLVFEENPFCELEETVEAAIHPPYLVSKELMSLVSGLLQPVPERRTTLEKLVTDPWVTQPVNLADYTWEEVCRVNKPESGVLSAASLEMGN”, the “soluble on expression in E. coli” value is given as “soluble”. For “MSLIGKHFIITGATSGLGFAITNELLQRGAHVTILARNIDKFNRIKENYFKPEHINVIKCDLMQRKDIESLQKFLNTPINGFIYSSGVGYFKSISEHSTREVVETYEVNLTNFNLLYKVIQPQLVKAAYIVGISSQAALVSQANAAHYGASKAGFSAVLNALRLEQPELKVLNVQPGPIDTPFQKNADPTLKYFKNYRHMMIQPQQLAKQIVEGIILNKIEINQPSWMQEGHHHHHH”, the “soluble on expression in E. coli” value was “not soluble”.

As to “MKFIVKPHPEIFVKSESVRKRFTKILECNIRNIVKSRTESVAVFNRRDHIEVTSESNEYHAEVLEILTHTPGIHHVLEVKQSEFKDLHDIYEQVLELSRPLIENKTFVVRAKRRGKHDFTSIELERYVGGGLNQAVESARVKLHNPDVTVKVEVSGDKLNQVLARHKGLGGFPLGTQEDVLSLISGGFDSGVSSYLHIKRGSKVHYCFFNLGGPAHEIGVKQVSHYLWNKYGSSAKVRFISVDFEPVVAEILEKVDDGQMGVILKRMFMRAAGMIAEKFKIEALVTGEALGQVSSQTLTNLRHIDNVTDTLILRPLINWDKEDIINLAREIGTEDFAKTMPEYCGVISKKPTVKAVKEKLEAEEAKFDFSILEKVVYEARQMDIRDIAKESEQAAPEVEQVQAVEEHAVVLDIRSPDEEDDNPLEIAGVDVKHIPFYKLGTQFGDLDQSKTYLLYCDRGVMSRLQALYLQEQGFNNVKVYRP”, the “soluble on expression in E. coli” value is listed as “not soluble”. The result for “MGSDKIHHHHHHMTRGIALFFWNRKKATKKISPEPEAAQEVWQRKKYRTNYYTYNSAKERGSLRSKKQRKHEIGEYKLEVGLAHLPRCFRRLSNLLLGTKGRFHQIDHVLISPYGIFLLEANNLSGLIVGEETESKWYQAITWRVKTFPNPIMENQVRVQMLQELAGLDQTIPVFSYVTFNRSCSLKVFSGMVFYDIDLPASIMQLAQNQPAVLSDEEILELVERIEKINLTDLGLRNEYAARQRRERMQYRPKYGDIRCSICQKAVNERMARYCLNRPEKFAWKIYCEKHQREMTRVVRREGGREGHGPYPESTDSKKESMD” reads “not soluble”. Consider “MIGYEFFVSEKLENCKYKYIKAINDYIKQEKSHIIGIDLGKYHYLTASNIDRSFVFVDKHNTLFHLFRKYERRIANKQYDNSEAYSKLKTGLKSHINQVVNEMLEQTSNRFQTVFALDDHGSSHLSFPSLVFDLTYFAIKQRKNESDEILIVDESFTSIECPICHDRNQYNRTNKNKFKCTKCGFIHQNNDIVAASNIAKKGQLLNSLEHHHHHH”, for which the “soluble on expression in E. coli” value is “not soluble”. The same measure for “DQALATALPGKWIHLRILALANAHIVIDEVHTLDHYQTALLENILPILAKLKTKITFLTATMPSWQRTKLLTAYGGEDLQIPPTVFPAAETVLPGQFNRTLIDSDSTTIDFTMEETSYDHLVESHVKWHQTTRLNAPHARIGLICNTVKRAQEIAAALEKTNDRIVLLHSRMTTEHRRRSAELLESLLGPNGNRKTITVVGTQAIEASLDIDLDILRTELCPAPSLVQRAGRVWRRNDPYRSSRITADHKPISVVFIAEAEDWQVLPYLRAETSRTQRWLEKHNQMFLPQMAQEFIDAATVDLDTATSEMDLDALALMGIHLMKADGAKARIQDVLNSDSKVSDFALLTSKNEIDEAQTRLIEEGTHLRIILGDENESIPGGWKHGLSSLLKLKASDRESLRTALLASIPLLVSEKQKQLLYQHN”: “not soluble”; for “MSLKKILIIDQQDFSRIELKNFLDSEYLVIESKNEKEALEQIDHHHPDLVILDMDIIGENSPNLCLKLKRSKGLKNVPLILLFSSEHKEAIVNGLHSGADDYLTKPFNRNDLLSRIEIHLRTQNYYSDLRKNDLLMLLELTETISVTRNPRRILSIIVERLIKTIDVSRCSIIGINDFGELLVLASSDLPENQEIKLDLKKYPEIEKALETQRPVVLQDITNSALMKPVKKHIEALSDNAVFVVPIIKKQNVIGTFFLRTACLQKGGITDRIFKLCQVIASISGNALENAIIFESMETNKKLLEDLSVRDSLTKLYNHQHYHSRLEDEFSRAQRYNLDLSCIFLDIDNFKNINDRYGHLAGDMVLRQIARLISQVIRKSDISARYGGEEFAICLPNTGGVAANELAERLLVMIRELSIQQLKGEHVTVSIGTSTYSNHNVASYSELLHLADDAMYEAKKSGKNRFCCSTAMEGHHHHHH”: “soluble”; for “MGCKISTEFCSDNPVGSISTSKVHPTDLSTPSYAIKPVEFYEEPLKDDQLFYKVALAKKEYREKEKDKKEQLSSNRRVSLQVEPNKLPIPLTRSSSLSSIMENRPPSGISNSSFIRSRNTASRRFTIDTSRAKSNQYVVSLCSKKIGIIEYPDGRSDKQPCDVYWHNVVLSDMNKIVTSPQSRVNKFPGMTELAKKISLTHSISSMQKLFPDEYAFYPNSWFLPAHLADFHAFYRKAQALGKTEMWFIVKPDEGAQGTGIYLINSPNQIRNVDQRQLVQEYVADPLLMNDKLKFDFRVYGVIKSINPLSIYVAREGMARFCTEKYEKPDSSNFKNLYAHLTNYSLNKANEAYVHSNTLQDQTRGSKRLLSTVFHQLESRGVKTKRLWHDIKLILVKTTLAMLPEIMLHYEHHFYDSTGPQCFQIMGFDVMIREDGTPILLEVNAAPSLTADHIVPHPGRTLLEGGQRVRSIVDEVIKIPLVRDTLLLVLGLMEEEYQNNSLKGETKSLDDMQTIKQRRKPHLSEIFPTRYGAHSGHLLFLDKAMYIYMQFVQLRSNVNITNAGLKQFVRKCNLIDIIPVVHVDAKVSEINYYFTGEKRTNGNGLPFHAFLMFLFFIAEKKFVLENDLLSKVQRLLSFCDMSLRRYGVRSARLRRAEVDSTIGNVEIYMLPSRMARNRSGTNGRKQNFTDDNNNPNSFAHLPKINERL”: “not soluble”. The same measure for “MKTLSKQDNTMEWLVKKSCCNKQDNRHVLMLCDAGGAIKMIAEVKSDFAVKVGDLLSPLQNALYCINREKLHTVKVLSASCYSPDEWERQCKVAGKTQ”: “soluble”; for “MPSETPQAEVGPTGCPHRSGPHSAKGSLEKGSPEDKEAKEPLWIRPDAPSRCTWQLGRPASESPHHHTPPAKSPKILPDILKKIGDTPMVRINKIGKKFGLKCELLAKCEFFNAGGSVKDRISLRMIEDAERDGTLKPGDTIIEPTSGNTGIGLALAAAVRGYRCIIVMPEKMSSEKVDVLRALGAEIVRTPTNARFDSPESHVGVAWRLKNEIPNSHILDQYRNASNPLAHYDTTADEILQQCDGKLDMLVASVGTGGTITGIARKLKEKCPGCRIIGVDPEGSILAEPEELNQTEQTTYEVEGIGYDFIPTVLDRTVVDKWFKSNDEEAFTFARMLIAQEGLLCGGSAGSTVAVAVKAAQELQEGQRCVVILPDSVRNYMTKFLSDRWMLQKGFLKEEDLTEKKPWWWHLRVQELGLSAPLTVLPTITCGHTIEILREKGFDQAPVVDEAGVILGMVTLGNMLSSLLAGKVQPSDQVGKVIYKQFKQIRLTDTLGRLSHILEMDHFALVVHEQIQYHSTGKSSQRQMVFGVVTAIDLLNFVAAQERDQK”: “soluble”; for “AGHMQQEAVAPEDSAVVKLATDSFNEYIQSHDLVLAEFFAPWCGHCKNMAPEYVKAAETLVEKNITLAQIDCTENQDLCMEHNIPGFPSLKIFKNSDVNNSIDYEGPRTAEAIVQFMIKQSQPAVAVVADLPAYLANETFVTPVIVQSGKIDADFNATFYSMANKHFNDYDFVSAENADDDFKLSIYLPSAMDEPVVYNGKKADIADADVFEKWLQVEALPYFGEIDGSVFAQYVESGLPLGYLFYNDEEELEEYKPLFTELAKKNRGLMNFVSIDARKFGRHAGNLNMKEQFPLFAIHDMTEDLKYGLPQLSEEAFDELSDKIVLESKAIESLVKDFLKGDASPIVKSQEIFENQDSSVFQLVGKNHDEIVNDPKKDVLVLYYAPWCGHCKRLAPTYQELADTYANATSDVLIAKLDHTENDVRGVVIEGYPTIVLYPGGKKSESVVYQGSRSLDSLFDFIKENGHFDVDGKALYEEAQEKAAEEADADAELADEEDAIHDEL”: “soluble”. The same measure for “MEVYIPSFRYEESDLERGYTVFKIEVLMNGRKHFVEKRYSEFHALHKKLKKCIKTPEIPSKHVRNWVPKVLEQRRQGLETYLQAVILENEELPKLFLDFLNVRHLPSLPKAESCGSFDETESEESSKLSHQPVLLFLRDPYVLPAASDFPNVVIEGVLHGIFYPHLQPR”: “soluble”; for “MGSDKIHHHHHHMKNIYLFIVSLFFFYTGCDTQQTKYPFSVETVLAKAGNNRKELEKALDYFYKQGDSIKIKAIEFLVAHMDIHYSETYYWKTREGKRVDFSEFDYANLETAVKAIDSMRKKYGSLDFQDTIIYDVNSLTGKYLINNVNHAVDTWRLSEYKDIPFNDFCEYILPYRVTVEPVTEWRKEYCKRYHWLTDSLQNKPLENVLDYAAIDYKDWFTFTYGSETRNEPLSRLSAQQLLFRKKGACEDIAALETFIFRSQGIPAAYISVPLWATSAGAHFSNTVFDTKMKPVKLDVTTHAVVDHPLDREPSKVIRYTYSSQPGTLASKEKEECIPTGFLQKTNYIDVTHEYWETSDVTIPLFNDTTHIIYACMFSMGRWNAEWWGERMENSVTFHNMPRGVVILPMIYKEHQLIPIGYPIVNGYNHQLYLVPDLLHTMTVEIEEQDRYLRFRPDKKYELFYWDNAWISLGTQVATMDADCLQFNQVPQNVLMLLVPEYSERKERPFIIMPDGTRYWW”: “not soluble”; for “MKQFDKHADAYNVVRGKIAYPDSLYRNLAERAPAREAALDIGCGNGVSTVRLQPWFRYVEGSDLGEALIAKARENYPEIRFSVSPAETFAPQRRFDLVTSATSFYWMDRKQVLTRMADWLTPGGLFCAYKYDFPIAYGPLRDFIEHELVNKWAKHRDPRLTRYDDTLEIMGSCPHLRDCRREVFANIIFLSPEEVALFFLSTSYVTRYIEQEGGEDYADRFIAAVREIESAPQVAVNFDIHAFTALNR”: “not soluble”. As for “MAHHHHHHMSEDESNSVSCSLSLESDGYSDEEYDTNLNKLIENESLNWIFVGGKGGVGKTTTSCSIAVQLSKRRESVLLLSTDPAHNTSDAFNQKFTNQPTLINSFDNLYCMEIDTNYSENTAFKLNKKEMFDNILPELLHSFPGIDEALCFAELMQSIKNMKYSVIVFDTAPTGHTLRLLAFPDLLKKALGYLINIREKLKGTLNVLKNFTNNEMEFDSLYEKINHLNAMSSSIQANFQNPMKTTFVCVCIPEFLSVYETERLIQELTKKNISCYNIVVNQVVFPLDSPNVNLENCKNLLSQIKNEQIQSYFNDLISKTEELEDVYISRRKLQSKYLTQIKNLYSNDFHIVCMPQLKNEIRGLNNISSFSEMLLQSKDIPIYKDNL”, the “soluble on expression in E. coli” value was “not soluble”. With “MAMSRQCTHYGRWPQHGFTSLKKLTPQSVTSRIQPGTDVIVCAEMDEHWGYFCAKKRQRWLVDTYDKIRRTDVDHVFGERTLATLERLLSLLSAFEVAVWMTDGWPLYESRLKGKLHVISKRYTQRIERHNLNLRQHLARLVRKSLSFSKSVELHSGIILEHHHHHH”, the “soluble on expression in E. coli” value is reported as “not soluble”. The same measure for “GMDKLTHYRHTIQEIIKKYYDLSNSQPATATETKISDDLPDTVGDRLIIDEQRDQYLWLCCGWDGKKRVQHIILYLQIQNGKIWIEEDSTNLAIVDEMLVAGIPQTDIILGFHHPSKRGLTEFAIA”: “soluble”.
